In patent US20050042664A1 (AstraZeneca / MedImmune, published 2005):

Molecular target: T1, human EphA2 (human, UniProt P29317 24-534, limits assumed)
T1 construct: Target of the BIAcore analysis as named in the text
Assay: BIAcore; format not stated

T1 sequence (P29317 24-534 limits assumed): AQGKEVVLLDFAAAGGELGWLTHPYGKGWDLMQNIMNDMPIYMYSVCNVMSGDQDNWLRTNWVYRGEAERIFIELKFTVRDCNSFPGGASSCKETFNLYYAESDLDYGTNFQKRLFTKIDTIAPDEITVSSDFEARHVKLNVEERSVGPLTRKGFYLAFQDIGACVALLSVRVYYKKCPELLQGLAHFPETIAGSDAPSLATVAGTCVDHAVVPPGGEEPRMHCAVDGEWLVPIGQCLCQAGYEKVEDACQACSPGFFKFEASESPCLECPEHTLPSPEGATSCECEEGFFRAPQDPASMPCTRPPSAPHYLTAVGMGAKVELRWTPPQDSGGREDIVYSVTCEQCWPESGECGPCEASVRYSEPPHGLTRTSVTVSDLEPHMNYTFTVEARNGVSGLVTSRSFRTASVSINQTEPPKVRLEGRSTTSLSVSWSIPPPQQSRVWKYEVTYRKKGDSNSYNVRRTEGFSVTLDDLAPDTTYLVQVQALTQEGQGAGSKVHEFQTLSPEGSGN

| Binder | Kd | koff | kon |
| --- | --- | --- | --- |
| Humanized version I of EP101 (hu IgG1) (antibody, V domains shown) VH: QMQLVQSGPEVKKPGTSVKVSCKASGFTFTDYSMNWVRQARGQRLEWLGFIRNKANDYTTEYSASVKGRVTITRDMSTSTAYMELSSLRSEDTAVYYCARYPRYHAMDSWGQGTSVTVSS VL: DIVMTQSPSSLSASVGDRVTIICRASQSISNNLHWYQQKPGKAPKLLIKYVFQSISGVPSRFSGSGSGTDFTFTISSLQPEDFATYYCQQSNSWPLTFGGGTKVEIK | 0.7 nM | 3.76e-05 s⁻¹ | 53200 M⁻¹ s⁻¹ |
| Humanized version II of EP101 (hu IgG1) (antibody, V domains shown) VH: QMQLVQSGPEVKKPGTSVKVSCKASGFTFTDYSMNWVRQARGQRLEWIGFIRNKANDYTTEYSASVKGRVTITRDMSTSTAYMELSSLRSEDTAVYYCARYPRYHAMDSWGQGTSVTVSS VL: DIQMTQSPSSLSASVGDRVTITCRASQSISNNLHWYQQKPGKAPKLLIKYVFQSISGVPSRFSGSGSGTDFTFTISSLQPEDFATYYCQQSNSWPLTFGGGTKVEIK | 1.2 nM | 4.13e-05 s⁻¹ | 35600 M⁻¹ s⁻¹ |
| Mouse version of EP101 (mouse IgG) (antibody, V domains shown, Mouse IgG; also called anti-human EphA2 monoclonal antibody EP101; parental murine antibody) VH: EVKLVESGGGLVQPGGSLSLSCAASGFTFTDYSMNWVRQPPGKALEWLGFIRNKANDYTTEYSASVKGRFTISRDNSQSILYLQMNALRAEDSATYYCVRYPRYHAMDSWGQGTSVTVSS VL: DIVLTQSPATLSVTPGDSVNLSCRASQSISNNLHWYQQKSHESPRLLIKYVFQSISGIPSRFSGSGSGTDFTLSINSVETEDFGMYFCQQSNSWPLTFGAGTKLELK | 0.3 nM | 0.000101 s⁻¹ | 330000 M⁻¹ s⁻¹ |

Further lines, results first:

| Kd | koff | kon | Binder |
| --- | --- | --- | --- |
| 1.3 nM | 7.62e-05 s⁻¹ | 60000 M⁻¹ s⁻¹ | Humanized version III of EP101 (hu IgG1) (antibody, V domains shown) VH: QMQLVQSGPEVKKPGTSVKVSCKASGFTFTDYSMNWVRQARGQRLEWIGFIRNKANDYTTEYSASVKGRVTITRDMSTSTAYMELSSLRSEDTAVYYCARYPRYHAMDSWGQGTSVTVSS VL: DIVMTQSPSSLSASVGDRVTIICRASQSISNNLHWYQQKPGKAPKLLIKYVFQSISGVPSRFSGSGSGTDFTFTISSLQPEDFATYYCQQSNSWPLTFGGGTKVEIK |
| 0.3 nM | 8.04e-05 s⁻¹ | 242000 M⁻¹ s⁻¹ | Chimaeric version of EP101 (hu IgG1) (antibody, V domains shown, Chimeric Fab cloned and expressed as a full length human IgG1; also called chimeric version of anti-EphA2 antibody) VH: EVKLVESGGGLVQPGGSLSLSCAASGFTFTDYSMNWVRQPPGKALEWLGFIRNKANDYTTEYSASVKGRFTISRDNSQSILYLQMNALRAEDSATYYCVRYPRYHAMDSWGQGTSVTVSS VL: DIVLTQSPATLSVTPGDSVNLSCRASQSISNNLHWYQQKSHESPRLLIKYVFQSISGIPSRFSGSGSGTDFTLSINSVETEDFGMYFCQQSNSWPLTFGAGTKLELK |
